The test has as its target neurokinin 1 receptor (human) (UniProt P25103).
Chain of UniProt P25103 (P25103 whole entry): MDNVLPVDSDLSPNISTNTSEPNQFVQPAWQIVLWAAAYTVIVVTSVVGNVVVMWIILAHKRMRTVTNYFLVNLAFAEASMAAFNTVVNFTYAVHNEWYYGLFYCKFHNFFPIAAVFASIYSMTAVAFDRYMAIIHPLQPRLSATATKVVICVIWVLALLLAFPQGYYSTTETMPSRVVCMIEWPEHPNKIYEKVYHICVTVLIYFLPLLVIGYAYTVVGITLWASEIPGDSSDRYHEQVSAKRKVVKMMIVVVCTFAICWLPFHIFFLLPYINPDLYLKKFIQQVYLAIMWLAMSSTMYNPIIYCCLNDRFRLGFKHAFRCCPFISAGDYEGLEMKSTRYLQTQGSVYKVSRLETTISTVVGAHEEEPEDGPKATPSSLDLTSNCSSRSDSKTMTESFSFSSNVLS

On to Substance P 6-11 (peptide), for which the cAMP accumulation at wild-type NK1R, potency compared to SP was determined as 16 fold.

Values taken from article doi:10.1101/2021.05.16.444192.
